The target in assay [1] is T1, mouse TL1A, soluble, CHO-expressed, residues 76-252 of SEQ ID NO:250 with N-terminal His6-tag (mouse, UniProt Q5UBV8 76-252).
T1 construct: also called mTL1A; mTL1A (CHO)
T1 sequence: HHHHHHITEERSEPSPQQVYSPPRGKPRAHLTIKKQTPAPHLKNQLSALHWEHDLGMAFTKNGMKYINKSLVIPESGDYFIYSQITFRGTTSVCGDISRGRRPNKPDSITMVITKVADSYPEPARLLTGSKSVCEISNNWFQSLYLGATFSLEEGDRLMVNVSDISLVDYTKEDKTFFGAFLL
As to the kind of experiment: SPR 37C, mAb captured. Put shortly:
(§1)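 Biacore T100 SPR with captured mAb and soluble TL1A/Fhm analyte; ka and kd fitted to a 1:1 model assuming monomeric TL1A. KD = kd/ka; t1/2 (min) = ln2/(60·kd).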

The target of assay [2] is T2, rat TL1A, soluble, CHO-expressed, residues 76-252 of SEQ ID NO:258 with N-terminal His6-tag (rat, UniProt Q8K3Y7 76-252).
T2 construct: also called rTL1A; rTL1A (CHO)
T2 sequence: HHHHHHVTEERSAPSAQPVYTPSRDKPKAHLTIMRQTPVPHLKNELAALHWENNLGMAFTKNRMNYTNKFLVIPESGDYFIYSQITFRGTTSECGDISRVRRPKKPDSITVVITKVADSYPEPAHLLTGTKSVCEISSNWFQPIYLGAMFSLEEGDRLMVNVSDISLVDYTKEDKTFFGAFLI
Description: SPR 37C, mAb captured. In short, it runs like this: as §1

In assay [3] the target is T3, human TL1A, soluble, CHO-expressed, residues 72-251 of SEQ ID NO:244 with N-terminal His6-tag (human, UniProt O95150 72-251).
T3 sequence: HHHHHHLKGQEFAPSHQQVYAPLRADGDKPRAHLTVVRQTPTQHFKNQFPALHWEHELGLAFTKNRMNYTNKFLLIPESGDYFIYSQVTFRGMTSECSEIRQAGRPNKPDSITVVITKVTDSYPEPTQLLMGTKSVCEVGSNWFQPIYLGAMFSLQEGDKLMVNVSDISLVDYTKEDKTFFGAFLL
Description: cell-based or functional assay.

In assay [4] the target is T4, Fhm, hTL1A(Q167R), soluble, CHO-expressed, residues 72-251 of SEQ ID NO:246 (human, UniProt O95150 72-251).
T4 construct: also called Fhm (CHO); FHM (CHO)
T4 chain: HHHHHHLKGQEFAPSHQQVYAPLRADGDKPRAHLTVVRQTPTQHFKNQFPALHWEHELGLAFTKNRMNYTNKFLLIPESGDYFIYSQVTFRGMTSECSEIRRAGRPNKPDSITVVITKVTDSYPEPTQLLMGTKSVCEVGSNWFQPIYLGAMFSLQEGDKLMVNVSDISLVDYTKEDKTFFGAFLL
As to the kind of experiment: ELISA, blocks FHM (150 pM) binding hDR3-Fc. The procedure: (§2) The ability of antibodies to block human TL1A binding to its cognate receptors, the DR3 and DcR3 receptors, was measured using a competition sandwich ELISA. In addition, blocking of a human TL1A variant FHM (human TL1A Q167R) and the cynomolgus monkey (Macaca fascicularis) TL1A (MfTL1A) protein binding to the human DR3 or DcR3 receptors was measured in the same manner. Constant amounts of biotinylated human TL1A or FHM (both expressed with a 6-His tag in CHO cells) or biotinylated MfTL1A (expressed in CHO cells) were separately titrated with varying amounts of antibodies. The antibody-protein complexes were incubated in solution (1 hr, 25° C.) and then transferred to microtiter plates coated with human DR3 (hDR3) or human DcR3 (hDcR3) expressed as human IgG1 Fc fusion proteins. After one hour at 25° C. the wells were washed, and bound human or monkey TL1A was detected with streptavidin conjugated with horseradish peroxidase (HRP). Wells were developed with a TMB solution to produce a colorimetric reaction and quenched with aqueous sulfuric acid before reading absorbance at 450 nm on a Perkin-Elmer Victor X5 plate reader. A sigmoidal dose-response curve was fit to the data using the Prism™ data analysis package. […] Both fully human anti-hTL1A mAbs and comparator antibodies, i.e., control mAb1 (an anti-hTL1A antibody with heavy and light chain variable domains having the amino acid sequences corresponding to SEQ ID NOS:21 and 27, respectively, of US 2009/0280116) and control mAb3 (an anti-hTL1A antibody with heavy and light chain variable domains having the amino acid sequences corresponding to SEQ ID NOS:57 and 48, respectively, of US 2009/0280116), were included in the study. NB: No binding under the conditions tested; NT: Not tested. Concentrations of biotinylated soluble ligands: (1) 150 pM; (2) 500 pM; (3) 10 pM; and (4) 50 pM.
For orientation: In an ELISA, binding on a coated surface is turned into a signal by an enzyme label.

Assay [5] addresses T5, Fhm, hTL1A(Q167R), soluble, E. coli-expressed, residues 72-251 of SEQ ID NO:246 (human, UniProt O95150 72-251).
T5 construct: with or without N-terminal Met
T5 chain: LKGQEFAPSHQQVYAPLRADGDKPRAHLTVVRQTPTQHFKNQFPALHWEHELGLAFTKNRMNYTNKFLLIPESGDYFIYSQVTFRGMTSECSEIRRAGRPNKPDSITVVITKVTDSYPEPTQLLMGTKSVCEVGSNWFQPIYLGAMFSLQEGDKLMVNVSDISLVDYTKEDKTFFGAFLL
As to the kind of experiment: SPR 37C, mAb captured. In short, it runs like this:
as §1

Assay [6] addresses T4, Fhm, hTL1A(Q167R), soluble, …. Description: ELISA, blocks FHM (10 pM) binding hDcR3-Fc. The procedure:
as §2

B1: H4H1752P (antibody, human IgG4 S228P, V domains shown)
VH: EVQLVESGGGLVQPGGSLRLSCSASGFTFSKYVMTWVRQAPGKGLEWVSAIGPTGRTTEYADSVQGRFTISRDNSMNTVFLHLNSLTAEDTAEYYCAKMFDWNYDVYFDSWGQGTLVTVSS
VL: DIQMTQSPSILSASVGDRVTITCRTSQSISNWLAWYQQKPGKAPNLLIYKASSLESGVPSRFSGSGSGTEFTLTISSLQPDDFATYYCQQYYRYWTFGQGTKVEIK
For the molecule B1, the binding result in assay [1] was “no binding (tested: up to 100 nM)”.

B2: H4H1804N (antibody, human IgG4 S228P, V domains shown)
VH: QVQLHQWGAGLLKPSETLSLTCAVSGVSFSDYHWAWIRQSPGKGLEWIGDINHRGRTNYNPSLKSRVTISLDTSGNPFSLKLTSVTAADTAVYYCARDFPNWVFDSWGQGILVTVSS
VL: EIVLSQSPGTLSLSPGERATLSCRASQSVSSSFLAWYQQYPGQAPRLLIYGASRRATGIPDRFRGSGSGTDFTLTISRLEPEDFAVYYCQQYGSSPLTFGGGTKVENK
notes: human IgG4(S108P) form of H2M1804N
As a reminder, the Kd is the constant that tells how readily two partners part at equilibrium. Read a high Kd as weaker binding. Consider B2, for which, in assay [1], the binding result is listed as “no binding (tested: up to 100 nM)”. In assay [2], this molecule showed a Kd of 0.127 nM and a t1/2 of 88 min. Besides, in assay [3], the “IC50, IFN-g release, average of donors” value worked out at 8.8 nM; the “IC50, IFN-g release, donor D1” value is 6.8 nM; the “IC50, IFN-g release, donor D2” value is 8.6 nM; the “IC50, IFN-g release, donor D3” value came out at 8.6 nM. Further, in assay [3], the “IC50, IFN-g release, donor D4” value was 7.7 nM; the “IC50, IFN-g release, donor D5” value came out at 6.7 nM; the “IC50, IFN-g release, donor D6” value was 8.6 nM; the “IC50, IFN-g release, donor D7” value turned out to be 12 nM. In assay [3], the “IC50, IFN-g release, donor D8” value came to 11 nM; the “IC50, IFN-g release, donor D9” value came to 8.1 nM; the “IC50, IFN-g release, donor D10” value came out at 12 nM; the “IC50, IFN-g release, donor D11” value was determined as 7.6 nM. Moreover, in assay [3], the “IC50, IFN-g release, donor D12” value is 7.5 nM.

B3: H4H1805N (antibody, human IgG4 S228P, V domains shown)
VH: QVQLQQWGAGLLKPSETLSLTCAVYGGSFTGFYWSWIRQPPGKGLEWIGEINHRGNTNYNPSLKSRVTMSVDTSKNQFSLNMISVTAADTAMYFCASPFYDFWSGSDYWGQGTLVTVSS
VL: DIMLTQTPLTSPVTLGQPASISCKSSQSLVHSDGNTYLSWLQQRPGQPPRLLFYKISNRFSGVPDRFSGSGAGTDFTLKISRVEAEDVGVYYCMQATQFPLTFGGGTKVEIK
notes: human IgG4(S108P) form of H2M1805N
For B3, in assay [3], the “IC50, IFN-g release, average of donors” value was determined as 4 nM; the “IC50, IFN-g release, donor D1” value was 2.4 nM; the “IC50, IFN-g release, donor D2” value turned out to be 5.5 nM; the “IC50, IFN-g release, donor D3” value came to 3.4 nM. Also, in assay [3], the “IC50, IFN-g release, donor D4” value was 2.5 nM; the “IC50, IFN-g release, donor D5” value was 2.9 nM; the “IC50, IFN-g release, donor D6” value was 3.4 nM; the “IC50, IFN-g release, donor D7” value was 8 nM. Also, in assay [3], the “IC50, IFN-g release, donor D8” value was determined as 5.1 nM; the “IC50, IFN-g release, donor D9” value was found to be 5.9 nM; the “IC50, IFN-g release, donor D10” value was found to be 2.8 nM; the “IC50, IFN-g release, donor D11” value came to 3 nM. In addition, the “IC50, IFN-g release, donor D12” value in assay [3] was determined as 3.1 nM.

B4: H4H1818N (antibody, human IgG4 S228P, V domains shown)
VH: RLQLVESGGGLVKPGGSLKLSCAASGFTISDYYMSWIRQAPGKGLEWVSYIGGSGSTIYYADSVKGRFTISRDNAKNSLYLQMNSLRAEDTAVYYCAREDADSYYYYGMDVWGQGTTVTVSS
VL: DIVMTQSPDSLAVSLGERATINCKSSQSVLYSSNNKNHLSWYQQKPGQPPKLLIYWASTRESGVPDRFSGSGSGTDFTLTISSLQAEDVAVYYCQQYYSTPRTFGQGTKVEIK
notes: human IgG4(S108P) form of H2M1818N
By IC50 is commonly meant the concentration that gives 50% inhibition. Read a low IC50 as higher potency. B4 had a half-maximal inhibitory concentration (IC50) in assay [4] of 0.202 nM.

B5: H4H1817N (antibody, human IgG4 S228P, V domains shown)
VH: QVQLQQWGAGLLKPSETLSLTCAVSGGSFSDYFWTWIRQPPGKGLEWIGEISHSGRTNYNPSLKSRVTISVDTSMSQFSLKMTSVTAADSAVYYCARDYPNWVFDYWGQGTLVTVSS
VL: EIELTQSPGTLSLSPGEGATLSCRASQSVFNSYLAWYQQKPGQAPRLLIYGASRRATGIPDRFSGSGSGTDFTLTISRLEPGDFAVYFCQQYGNSPLTFGGGTKVEIK
notes: human IgG4(S108P) form of H2M1817N
In assay [2], B5 yielded a Kd of 1.6 nM and a t1/2 of 26 min. In assay [3], the “IC50, IFN-g release, average of donors” value is 6.5 nM; the “IC50, IFN-g release, donor D1” value stood at 6.6 nM; the “IC50, IFN-g release, donor D2” value was 3.1 nM; the “IC50, IFN-g release, donor D3” value is 4.7 nM. Moreover, in assay [3], the “IC50, IFN-g release, donor D4” value came to 2.4 nM; the “IC50, IFN-g release, donor D5” value was 8.5 nM; the “IC50, IFN-g release, donor D6” value amounted to 4.7 nM; the “IC50, IFN-g release, donor D7” value was 7 nM. In assay [3], the “IC50, IFN-g release, donor D8” value came out at 7 nM; the “IC50, IFN-g release, donor D9” value turned out to be 9.5 nM; the “IC50, IFN-g release, donor D10” value stood at 7.3 nM; the “IC50, IFN-g release, donor D11” value worked out at 7.3 nM. In assay [3], the “IC50, IFN-g release, donor D12” value is 9.4 nM. For the same molecule, in assay [4], the IC50 was determined as 0.235 nM.

B6: H4H1725P (antibody, human IgG4 S228P, V domains shown)
VH: QVQLVQSGAEVKKPGASVKVSCKASGYTFTGYYMHWVRQAPGQGLEWMGWIKPKSGGTNYVQKFQGRVTMTRDTSINTAYMELNNLKSDDTAVYYCATGGSQDASDFWGQGTMVTVSS
VL: DIQMTQSPSSVSASVGGRVTITCRASQDISIWLAWYQQKPGKAPNLLIYAASSLQSGVPSRFSGSGSGTDFTLTISSLQPEDFATYYCQQADSFPLTFGGGTKVEIK
As to B6, in assay [5], the Kd came out at 0.0436 nM and the t1/2 was found to be 194 min. Further, in assay [2], the Kd was found to be 0.411 nM and the t1/2 was 15 min. For the same molecule, in assay [3], the “IC50, IFN-g release, average of donors” value worked out at 6.4 nM; the “IC50, IFN-g release, donor D1” value amounted to 3.4 nM; the “IC50, IFN-g release, donor D2” value worked out at 3.2 nM; the “IC50, IFN-g release, donor D3” value was 5.4 nM. Also, in assay [3], the “IC50, IFN-g release, donor D4” value was found to be 4.7 nM; the “IC50, IFN-g release, donor D5” value is 7 nM; the “IC50, IFN-g release, donor D6” value turned out to be 5.4 nM; the “IC50, IFN-g release, donor D7” value stood at 13 nM. In assay [3], the “IC50, IFN-g release, donor D8” value turned out to be 12 nM; the “IC50, IFN-g release, donor D9” value came out at 6.4 nM; the “IC50, IFN-g release, donor D10” value amounted to 4.1 nM; the “IC50, IFN-g release, donor D11” value was 6.1 nM. In addition, in assay [3], the “IC50, IFN-g release, donor D12” value worked out at 6.4 nM. In addition, the concentration for half-maximal inhibition (IC50) in assay [6] is 0.085 nM. The IC50 in assay [4] was 0.018 nM.

The values above are taken from patent US20140120109A1 (Regeneron, published 2014).
